Reference: US20240018502A1
Numbering of substitutions follows the chain as printed. Names and notes keep the numbering of the source.

B1: MTSP-1 Q38H/I41S/D60bT/F60eS/Y60gW/F97D/F99L/C122S/G151H/Q175L/Q192D (enzyme)
chain: VVGGTDADEGEWPWQVSLHALGHGHSCGASLISPNWLVSAAHCYIDTRGSRWSDPTQWTAFLGLHDQSQRSAPGVQERRLKRIISHPFFNDDTLDYDIALLELEKPAEYSSMVRPISLPDASHVFPAGKAIWVTGWGHTQYGGTHALILQKGEIRVINQTTCENLLPQLITPRMMCVGFLSGGVDSCDGDSGGPLSSVEADGRIFQAGVVSWGDGCAQRNKPGVYTRLPLFRDWIKENTGV
B2: MTSP-1 Q38H/I41S/D60bT/F60eT/Y60gW/ins97aV/F97D/T98P/F99L/C122S/G151H/Q175L/Q192V (enzyme)
chain: VVGGTDADEGEWPWQVSLHALGHGHSCGASLISPNWLVSAAHCYIDTRGTRWSDPTQWTAFLGLHDQSQRSAPGVQERRLKRIISHPFFNDDVPLDYDIALLELEKPAEYSSMVRPISLPDASHVFPAGKAIWVTGWGHTQYGGTHALILQKGEIRVINQTTCENLLPQLITPRMMCVGFLSGGVDSCVGDSGGPLSSVEADGRIFQAGVVSWGDGCAQRNKPGVYTRLPLFRDWIKENTGV
B3: MTSP-1 L33M/Q38H/I41A/D60bA/ins97aV/F97D/T98P/F99L/C122S/Q192G/D217N (enzyme)
chain: B2 chain with L18M, S26A, T47A, T50F, W52Y, H146G, L170Q, V189G, D215N
B4: MTSP-1 Q38H/I41S/D60bT/F93S/ins97aV/F97D/T98P/F99L/C122S/I136L/Q192G/D217A (enzyme)
chain: B2 chain with T50F, W52Y, F88S, I132L, H146G, L170Q, V189G, D215A
B5: MTSP-1 Q38H/I41S/D60bT/S90T/F97D/ins97aV/T98P/F99L/C122S/S127N/I136F/Q192G/D217Q (enzyme)
chain: B2 chain with T50F, W52Y, S85T, S123N, I132F, H146G, L170Q, V189G, D215Q
B6: MTSP-1 Q38H/I41S/D60bT/F60eS/Y60gW/D96K/ins97aA/F97D/T98P/F99L/C122S/G151H/Q175L/Q192D (enzyme)
chain: B2 chain with T50S, D91K, V93A, V189D
B7: MTSP-1 Q38H/I41A/D60bV/F60eR/Y60gW/D96S/ins97aR/F97A/T98S/F99L/C122S/G151N/Q175L/Q192T (enzyme)
chain: B2 chain with S26A, T47V, T50R, D91S, D92A, V93R, P94S, H146N, V189T
B8: MTSP-1 Q38H/I41A/D60bV/F60eR/Y60gW/D96Y/ins97aI/F97E/T98N/F99M/C122S/G151N/Q175L/Q192V (enzyme)
chain: B2 chain with S26A, T47V, T50R, D91Y, D92E, V93I, P94N, L95M, H146N
B9: MTSP-1 Q38H/I41S/D60bT/F60eS/Y60gW/ins97aV/F97D/T98P/F99L/C122S/G151N/Q175L/Q192D (enzyme)
chain: B2 chain with T50S, H146N, V189D
B10: MTSP-1 Q38H/I41A/D60bV/F60eR/Y60gW/D96P/ins97aN/F97W/T98G/F99L/C122S/G151N/Q175L/Q192E (enzyme)
chain: B2 chain with S26A, T47V, T50R, D91P, D92W, V93N, P94G, H146N, V189E
B11: MTSP-1 I41S/D60bS/D96V/ins97aV/F97D/T98P/F99L/C122S/Q192G/F208L/D217N (enzyme)
chain: B2 chain with H23Q, T47S, T50F, W52Y, D91V, H146G, L170Q, V189G, F206L, D215N
B12: MTSP-1 Q38H/I41T/D60bV/F60eR/Y60gW/D96I/ins97aN/F97Y/T98G/F99L/C122S/G151N/Q175L/Q192D (enzyme)
chain: B2 chain with S26T, T47V, T50R, D91I, D92Y, V93N, P94G, H146N, V189D
B13: MTSP-1 Q38H/I41A/D60bV/F60eR/Y60gW/D96I/ins97aN/F97Y/T98G/F99L/C122S/G151N/Q175L/Q192D (enzyme)
chain: B2 chain with S26A, T47V, T50R, D91I, D92Y, V93N, P94G, H146N, V189D
B14: MTSP-1 Q38H/I41A/D60bV/F60eR/Y60gW/ins97aE/F97T/T98G/F99L/C122S/G151H/Q175L/Q192D (enzyme)
chain: B2 chain with S26A, T47V, T50R, D92T, V93E, P94G, V189D
B15: MTSP-1 I41S/D60bH/ins97aV/F97D/T98P/F99L/C122S/I136V/Q192G/D217N (enzyme)
chain: B2 chain with H23Q, T47H, T50F, W52Y, I132V, H146G, L170Q, V189G, D215N
B16: MTSP-1 Q38H/I41S/L52M/D60bH/D96V/ins97aV/F97D/T98P/F99L/C122S/T150A/Q192G/Q209L/D217T (enzyme)
chain: VVGGTDADEGEWPWQVSLHALGHGHSCGASLISPNWMVSAAHCYIDHRGFRYSDPTQWTAFLGLHDQSQRSAPGVQERRLKRIISHPFFNVDVPLDYDIALLELEKPAEYSSMVRPISLPDASHVFPAGKAIWVTGWGHTQYGGAGALILQKGEIRVINQTTCENLLPQQITPRMMCVGFLSGGVDSCGGDSGGPLSSVEADGRIFLAGVVSWGTGCAQRNKPGVYTRLPLFRDWIKENTGV
B17: MTSP-1 Q38H/I41S/D60bY/D96Y/ins97aV/F97D/T98P/F99L/L106M/C122S/I136M/Q192G/Q209L/D217T (enzyme)
chain: B16 chain with M37L, H47Y, V91Y, L102M, I132M, A145T

Target: plasma purified human complement protein C3 (human) (UniProt P01024)
Test: cell-based or functional assay

plasma purified human complement protein C3 (human), sequence (P01024 23-667, chain 1 of 2): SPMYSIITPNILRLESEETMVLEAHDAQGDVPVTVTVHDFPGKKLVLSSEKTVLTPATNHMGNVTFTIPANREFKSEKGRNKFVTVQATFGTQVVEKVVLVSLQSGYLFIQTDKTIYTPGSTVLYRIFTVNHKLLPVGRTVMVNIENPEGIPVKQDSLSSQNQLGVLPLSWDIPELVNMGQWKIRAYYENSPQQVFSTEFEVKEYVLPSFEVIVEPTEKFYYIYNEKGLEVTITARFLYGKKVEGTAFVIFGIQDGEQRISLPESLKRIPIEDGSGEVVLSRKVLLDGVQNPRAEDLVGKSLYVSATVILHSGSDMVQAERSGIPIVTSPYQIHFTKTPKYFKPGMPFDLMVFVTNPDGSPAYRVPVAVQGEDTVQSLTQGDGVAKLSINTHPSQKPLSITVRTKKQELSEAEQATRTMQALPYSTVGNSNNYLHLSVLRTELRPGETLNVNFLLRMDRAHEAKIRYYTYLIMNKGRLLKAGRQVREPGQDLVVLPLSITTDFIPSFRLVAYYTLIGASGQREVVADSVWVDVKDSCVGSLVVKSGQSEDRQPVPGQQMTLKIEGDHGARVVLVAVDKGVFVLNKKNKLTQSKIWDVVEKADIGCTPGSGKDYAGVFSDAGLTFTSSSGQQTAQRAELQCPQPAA
plasma purified human complement protein C3 (human), sequence (P01024 672-1663, chain 2 of 2): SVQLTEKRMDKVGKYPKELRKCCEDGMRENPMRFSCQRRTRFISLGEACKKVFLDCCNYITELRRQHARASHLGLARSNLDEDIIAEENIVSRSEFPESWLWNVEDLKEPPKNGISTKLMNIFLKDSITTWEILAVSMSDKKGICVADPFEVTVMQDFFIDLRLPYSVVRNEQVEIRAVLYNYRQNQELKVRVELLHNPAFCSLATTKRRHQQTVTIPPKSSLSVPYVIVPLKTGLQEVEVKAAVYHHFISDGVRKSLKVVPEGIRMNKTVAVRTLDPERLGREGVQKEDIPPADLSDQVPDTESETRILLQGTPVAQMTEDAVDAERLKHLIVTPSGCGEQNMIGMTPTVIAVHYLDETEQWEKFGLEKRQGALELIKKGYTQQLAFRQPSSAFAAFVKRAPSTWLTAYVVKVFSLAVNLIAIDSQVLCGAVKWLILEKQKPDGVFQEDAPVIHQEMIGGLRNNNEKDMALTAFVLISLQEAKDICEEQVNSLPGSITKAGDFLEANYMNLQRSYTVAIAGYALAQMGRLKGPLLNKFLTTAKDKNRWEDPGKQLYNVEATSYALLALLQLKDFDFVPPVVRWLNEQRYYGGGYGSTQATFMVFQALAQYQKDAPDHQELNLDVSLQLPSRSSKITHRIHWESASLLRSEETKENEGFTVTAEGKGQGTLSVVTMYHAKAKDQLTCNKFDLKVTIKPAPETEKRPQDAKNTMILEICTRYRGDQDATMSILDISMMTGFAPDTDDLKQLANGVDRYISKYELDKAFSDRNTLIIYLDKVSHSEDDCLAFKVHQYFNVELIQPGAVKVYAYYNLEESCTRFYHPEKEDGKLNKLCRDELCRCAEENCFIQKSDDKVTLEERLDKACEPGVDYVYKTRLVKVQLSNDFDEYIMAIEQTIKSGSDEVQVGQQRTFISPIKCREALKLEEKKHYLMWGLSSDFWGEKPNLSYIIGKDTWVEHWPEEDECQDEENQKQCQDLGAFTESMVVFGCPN

| Binder | EC50 of hC3 cleavage [nM] |
| --- | --- |
| B1 | 5.53 |
| B2 | 5.52 |
| B3 | 50 |
| B4 | 37 |
| B5 | 21.2 |
| B6 | 7.09 |
| B7 | 2.07 |
| B8 | 4.36 |
| B9 | 15.4 |
| B10 | 1.51 |
| B11 | 52.4 |
| B12 | 9.75 |
| B13 | 2.23 |
| B14 | 5.93 |
| B15 | 20.6 |
| B16 | 16.9 |
| B17 | 1.97 |
